Test: soluble on expression in E. coli; label from the status in PepcDB or PDB records

| Sequence | soluble on expression in E. coli |
| --- | --- |
| MSLAIRVVCISDTHDLKVDIPRGDILIHAGDLTDGGTVSDIQKQLDWLKEQPHPIKVVVAGNHDSWFDQKSRPEEDARSGAKPDMDGLIYLESGLTVQKVKGRTVNIFGVPDIPEIGPKEFAFQYATDNHPWLSKVPPQTDILVTHCPPKHHLDLGLGDSNLLREVWRVKPRLHVFGHVHCAYGKESVFFDNFQQTYERIMSRPRRGPILDFIPNEAWLDYLRFLAQGIHAVAWKWIMSGPGSNNGSLMVNAAQMKGNSGKVKSRAVVVEIEGHHHHHH | soluble |
| MSLAKLRPTKTFKPKPPAGLPDRETLLAFLRDAGETGKADIARHFGLKGADRRALREMIRELEAQGALAKRGRKGFAEAGSLPPVGVADVVERDGDGELYVKLTKSDDDVPNVRLAPGKGEAAAGAPGLGDRLLVRFERLETGEFEAKLIKKLGQSAHKILGVIRKHRREVRVEPVDRKSKESLVLDPSVAHDFKEGDLVLAQVGTHGGRYGPKPGKVLEVVGTENDPRAASLIAIHSHGIPTGFSEAAEAEAKTAVEPTLAGREDLRDLPFVTIDPVDARDHDDAVYAHPDEDETNKGGFVVWVAIADVAAYVRPGSALDRDAREKGNSVYFPDRVEPMLPETLSNGLCSLRESENRATLAVRMVFDKSGRKKGHRFVRGLMRSAAKLSYEQAQAAIDGQPDDKAGPLLDPILKPLWDAYRTMKIGRDARSPLAIESDERRIIIKGGEITSITKRASLEAHKLIEEMMVQANVCAAESLEAKRSPLIYRVHDTPSLEKVQNLADFLQTLEIRWSKGEAPQTARFNKLLEETRESPNAAIINEVVLRTQMQAHYSADNIGHFGLNLAKYAHFTSPIRRYADLIVHRGLIRALGLGTDGLTDQDIAQIKDTAEVITHAERRAMAAERDATDRYIAAFLADRVGATFEGRITGVTRFGLFIKLADTGADGLVPVSSLGQEFFVHDDKMHALVGERTGKRWPLGLSVEVKLVEATPVTGGLLFEMLSEPLPPDPKMPRPRLGARRQAAVKPRGGLPKGVRRGKRREGHHHHHH | soluble |
| MSLAKNRLRAIPLGGAGEVGRNMWVLEQNDEILVLDCGVMFPEADMLGVDLVLPDITYLRDQKDKIKAIVLTHGHEDHIGAVPYLVPELDFPPIYGTPLTLGMLAGKLKEHRLLDRARLVKMQAGESFTVGSFTIEPFSVAHSIPDTVGLAIDTPVGLAIYLTDWKFDHTPVDGRPTDLVKLSELGRRSPLLLITDCVRVESKGYTPSEQVVGEAFDSIFATAPGRIIVATFASNVSRVQQVIDSAEAYGRKVVVAGRSMENTTRIALELGYLRAQQGTLIRPQEAAGLADDQVAVICTGSQGEPMSALARMANRDYPHVKIKEGDTVVVSATPIPGNEVSVNRVINNLFRLGAEVIYGGSPSSLAVHVSGHAAQEELKMALAILRPEFVVPFHGDYRHMMLYRKLALGMGGLFSESNVIIPENEGHHHHHH | not soluble |
| MSLAKRIVGSTPKQDGFRMPGEFEPQEKVWMIWPERPDNWRDGGKPVQEAFTNVAKAISQFTPMNVVVSQQQFQNCRRQLPPEITVYEMSNNDAWVRDCGPSFVINDHGEIRGVDWTFNAWGGLVDGLYFPWDQDDLVAQKICEIEHVDSYRTDDFVLEGGSFHVDGQGTVLTTEMCLLSEGRNPQLSKEAIEQKLCDYLNVEKVLWLGDGIDPEETNGHVDDVACFIAPGEVACIYTEDQNSPFYEAAQDAYQRLLKMTDAKGRQLKVHKLCCPVKNVTIKGSFKIDFVEGTMPREDGDICIASYMNFLITNDGVIVPQYGDENDHLALEQVQTMFPDKKIVGVNTVEVVYGGGNIHCITQQEPKREGGSHHHHHH | soluble |
| MSLAKVFTQEEREKIKGQVVELVRQSGRETLRQLEVKTGATRYLMSVLARELVASGDVYNSGYGLFPSEQARKDWQNARKKLSRAKVKKPAVVDPDLIWSSPDGEIRRYDSRLNIICRECRKSEAMQRVLAFYQGNFQEAVLEGHHHHHH | not soluble |
| MSLAKYKKLFEPYTLNNDVVLKNRLVVAPLTIYDSGPDGELTPAAHNFWRNRFRGFGTWIVPFTNVHPSGIGFESPNAFHEENLPTLKAYATISHEQGAKAIIQLAHAGIHADPAMTKGYDLMGPSNLPYMGVRAMTDSEVREMVNAFAYATELAISAGLDGVEIHGANGWLIQQFVSETYNQRTDHWGGSVEKRFNFPLAIIDAIEAVRHKYHRPDFIVGYRFSPEEPGEVGLTMTETLALVDRLLDKPLQYIHISLWNFYKKIRRGGDVKKTRMEAVHDRINGRLPFIGVGDLFAEEQGLKAFNTGWADLLAVGGSVELNPNLIELIKTGQEDQIQSEFDWNEMDSYRFTPAMLYGTLAGNAMFPKVKEGHHHHHH | soluble |
| MSLALEVNMLTGGPTGTYIQIGRDIAKAASACGIEMTVHESAGSLENFLGVRQRPRTQFGIVQSDVLEYLKTFAADDPEVSRAIFGVRIAFPLYDEEVHLLARREIGSLKDLDGKRVSIGVENSGTFLTASLVLDLAEVAPGERRMMNQDDSLKALLAGDIDAFFYVAGAPAKIFASPEIDGERFHLVPVAEEVLRQVYKPTQIPAGSYPFQTGPVDAIAVKAVLMTYGYDPKRNAYHRESCKAVSDIAHVVSTHFPELQQSGHPKWKQVNLTDLPAGWDIGECVNAGLEPGYRLPCDPPEPAVAAPADASAESEANRAYRRQICAVVGEGHHHHHH | soluble |
| MSLAMEHVDVLIVGAGLSGIGAAYHLQKHCPGKTYAILEGREAIGGTWDLFRYPGIRSDSDMYTLGYSFKPWKAAKAIADGPSILDYVRETAREHDIDRHIRFQHLVKRASWSSETATWTVEAEHDGKPVTLTCRFLHMCSGYYRYSAGYTPDFAGTERFKGRIVHPQHWPEDLDYSGKKVVVIGSGATAVTLVPEMAKTAAHVTMLQRSPTYVVSRPAEDGIANWLRSKLPAMTAYGITRWKNVLFQLFFFNLARKKPEKVKERLLGMVRDHLGPGYDVETHFTPRYNPWDQRLCLVPDADLFDAIKSGAASVVTDHIETFTETGIQLKSGKTLDADVIVTATGLQLQLLSGMEVVVDGKVADLSQSMSYKGMMFSDVPNLASVFGYTNASWTLKADLTSEYVCRLLNHMDRTGADYCVPRLDGEVEAAPWLDFSSGYITRSIGHFPKQGTRKPWKVHQNYALDLMTLRMGKVEDGVMQFGRKTGATAKAKPEKALEPAEGHHHHHH | soluble |
| MSLAMINDSIEQVWRDFSIRPAAEADDATWCRRVYLDVIGRIPSLEELSEFMSDRDSNKRANLVDRLLNDDRYTEEYANHWSTVWTNLLIGRSGGTDRRDLTNRTGMQKYLRDSFAGNKTYDQMTYELVTAEGSTTPGNANFNGAVNFLVDKVNAEKGTLATSSVSRIFLGQQVQCTQCHNHPFNQWKQQKFWEFNAFFRQTRALRRFVDGTQDIESAELVSQDFAGEANDPEDALVFYELRNGLQKVAYPVFTDGTEIEKSGFVEDVNRREELGRLMLQSEYLDKMIVNRMWSMFLGYGFTRPIDDLGPHNPSSHPELLENLGKEFRANSYDLKKLITWITLSRPYQLASTLSASNEIDDPTIGESPKFSRFYLRQMSAEQLYASMVTASNAQSKGSYEQQEAERRRWLSQFVVAFGNDEGTETTTFNGSIPQALMLFNGDLTKNAISLEAGSFLDQLSQTGRSPKDRVTRLFLSGLARRPTKNEVSIASKLLVARKGDEPEMLQDMWWAILNSNEFIMQHEGHHHHHH | soluble |
| MSLANGVWSLQPLADMSAAEFRDWQVLLENRTGVVLNEQRRTFLQTSLTARMRELGIGDYHSYYRQVTDGPRGAVEWAILLDRLTVQETRFFRHPPSFELLERYLGERLGREGMPRPWALWSVGCSSGEEPYSMAMCAAQALRGWQRGDFFGVTGTDISLHALQRARAANYPARKLEQLPAEMVERYCERQADGSFSVKTILTGRVCCARLNVLDLAKAPWSGMDVIFCQNLLIYFRRWRRREILNRLAERLAPGGLLVIGVGEVVDWSHPELEPVADERVLAFTRKGEGHHHHHH | soluble |
| MSLAPRFTVTYFVRAADEAEAKARALDIALEQTVEIPRNVVPKGYVEDEILGRLESLLQDPEGRPGFLAAISYSEDDIGGDFLQFLNIVFGNSSIKPGIKVEDIGLSPGLLDLCKGPRHGIVGLRARAGIGEKPLLMSAIKPAGLSTTELARLAYDFALGGMHFVKDDHGLVDQKTAPFEERLKACIEAVGEANAKSGGRTSFVPNITGPATAIIERAKQAQEYGAGGVMIAPALAGYDIVRTLAADPDFSLPIVSHPAFSGANVVSPDCGFTHRAFFGTLHRLMGADAVVYPNFGGRFGFTREECQSIAKTCSVDMGGPKAIVAAPGGGMTFARIPEMREAYGNDIMYLVGGALLSEPDLVSACKRLVAATEEGHHHHHH | soluble |
| MSLAPRLKLRDITFFERPVQFARPFRFGAITINATTQLFVRVEIEVEGRGSAVGASAELLVPKWFDKRPEFSPAQTVDGLRRSLEIARGLYLARTGFLTAFDLHAACIGAQIATCAKKNIPALAAAYGLAEIDKAILDALLRGVETGFFDGMAGNVAGIDARLSPDLKDAEIAAFLSSRKPLPRVAIRHTVDLDDTVEGKGGVADAHENAGASYFKLKLRGDPAADAARLARIGKELDTLGRSYKVTLDANEQYADLAALQALMDRLDHDSDLRPIASRLLYVEQPMPRDITRQSPLGSLAARGFIIDEADDSYDAFPAARALGYHGISSKSCKGLYKSIVSATRAAKWSGGGEKFFVTGEDLTCQAGLAVQQDLALGAFLGVTHAERNGHHYVDGFGDTPAAEAAAFAAAHPDLYADAGQGIRLSIHDGDLLTGSLHAAGFATSVHPDWSALRPLEQPTSLQEQLAEGHHHHHH | soluble |
| MSLASISPQGSMSLLSQLEIERLKASSNSQLYKLFRNCCLAVLNAGSHTDSSADIYDSYKDFEVNIIRRERGIKLELIEPPEEAFVDGEVIVGIRELLESVLRDILFTGERYSETDLEHADSATLTHVVFDILRNARTLRPQEEPNMVVCWGGHSINEIEYKYTKDVGYHIGLRGLNICTGCGPGAMKGPMKGATIGHAKQRVEGGRYLGLTEPGIIAAEPPNPIVNELVILPDIEKRLEAFVRCAHGIVIFPGGAGTAEELLYLLGILMHPDNQRQSLPVILTGPASSRDYFEALDEFIGATIGDEARQLYKIIIDDPAAVAQHMHAGMAAVKQYRRDSGDAYYFNWTLKINEEFQRPFSPTHENVAALNLHPDQPKERLAADLRRAFSAIVAGNVKDEGIRQIRKNGVFTIHGEQSLMKRLDELLRAFVEQGRMKLPGSVYNPCYKVITDEGHHHHHH | soluble |
| MSLASIVSVSSYPPPYLLKQETTTEFAKELFQEDFRDIERLLKSFSNGQIEERQFAVPLDWFRQDHSLQEKNDTYIKLATMFSVEVVRQCLQSNVFLKKPVAEEEIDTIVFVSSSGMATPSIEARMMNELPFSPHTKRVPMWGLGCAGGAAGMSRAYEYCRAFPRANVLVVCVELCSLTFQRQDRTKSNLIGASLFSDGVACALVSGDESDVLGRMKMPTRPLILGSSSTLMPDSEQVMGWDVKDTGLHVVFSRDIPNIIRHWLRPNVERFLETYRLSLEQIEAFIAHPGGRKVLEAYEEALSFSDEMTEYSRDILRHHGNMSSPTVLYVLEKFMKDTRDPGQYGLMAALGPGFCSELVLMQWEAVHEGHHHHHH | soluble |
| MSLASRRTDLIGMIVPDARQPFFGEMAHAVEQAAAERGKMVLVGNSDYVAEREVHYLRAFLGMRVSGLILVSHALNNQAAAEIEAWDARVVLLHERPELIDDVAVVTDDIGGAQLATRHLLEHGYAYVACLGGTAETPSVGDPVSDHVEGWRRAMQEAGIPTEGKLFEAPYNRYDAYQVGLELLAGPNRPPAIFCSTDDQAIGVLRAARELRIDVPGELAVAGFDDVKEAALTDPPLTTIASDRSAMARAAVDLVLDDGLRVAGSRRERLKLFPSRLVVRRSCGCAPQETPGSEGHHHHHH | soluble |
